According to patent US20260022176A1 (PARAGON THERAPEUTICS, published 2026):
Values joined by “and” are separate entries in the source; they are usually repeats but may differ in a detail not shown here. Equal values may be shown once.

B1: α4β7 binding antibody Ab001 (antibody, human IgG1, kappa)
heavy: QVQLVQSGAEVKKPGASVKVSCKGSGYTFTSYWMHWVRQAPGQRLEWIGEIDPSESNTNYNQKFKGRVTLTVDISASTAYMELSSLRSEDTAVYYCARGGYDGWDYAIDYWGQGTLVTVSSASTKGPSVFPLAPSSKSTSGGTAALGCLVKDYFPEPVTVSWNSGALTSGVHTFPAVLQSSGLYSLSSVVTVPSSSLGTQTYICNVNHKPSNTKVDKKVEPKSCDKTHTCPPCPAPELAGAPSVFLFPPKPKDTLYITREPEVTCVVVDVSHEDPEVKFNWYVDGVEVHNAKTKPREEQYNSTYRVVSVLTVLHQDWLNGKEYKCKVSNKALPAPIEKTISKAKGQPREPQVYTLPPSRDELTKNQVSLTCLVKGFYPSDIAVEWESNGQPENNYKTTPPVLDSDGSFFLYSKLTVDKSRWQQGNVFSCSVMHEALHNHYTQKSLSLSPG
light: DVVMTQSPLSLPVTPGEPASISCRSSQSLAKSYGNTYLSWYLQKPGQSPQLLIYGISNRFSGVPDRFSGSGSGTDFTLKISRVEAEDVGVYYCLQGTHQPYTFGQGTKVEIKRTVAAPSVFIFPPSDEQLKSGTASVVCLLNNFYPREAKVQWKVDNALQSGNSQESVTEQDSKDSTYSLSSTLTLSKADYEKHKVYACEVTHQGLSSPVTKSFNRGEC
notes: also called long acting α4β7 targeting molecule; Ab001-A647
B2: comparator antibody (antibody, human IgG1, kappa)
heavy: not shown
light: DVVMTQSPLSLPVTPGEPASISCRSSQSLAKSYGNTYLSWYLQKPGQSPQLLIYGISNRFSGVPDRFSGSGSGTDFTLKISRVEAEDVGVYYCLQGTHQPYTFGQGTKVEIKRTVAAPSVFIFPPSDEQLKSGTASVVCLLNNFYPREAKVQWKVDNALQSGNSQESVTEQDSKDSTYSLSSTLTLSKADYEKHKVYACEVTHQGLSSPVTKSFNRGEC
B3: Natalizumab (antibody, V domains shown)
VH: QVQLVQSGAEVKKPGASVKVSCKASGFNIKDTYIHWVRQAPGQRLEWMGRIDPANGYTKYDPKFQGRVTITADTSASTAYMELSSLRSEDTAVYYCAREGYYGNYGVYAMDYWGQGTLVTVSS
VL: DIQMTQSPSSLSASVGDRVTITCKTSQDINKYMAWYQQTPGKAPRLLIHYTSALQPGIPSRFSGSGSGRDYTFTISSLQPEDIATYYCLQYDNLWTFGQGTKVEIK

Key:
Cyno- α4β7 = target: T1, Cyno- α4β7 (Cyno); experiment: SPR with multiple cycle kinetics
T1 construct: SPR antigen; construct not described; also called cynomolgus α4β7 integrin

Dog- α4β7 = target: T2, Dog- α4β7 (Dog, UniProt A0A8I3PRY8 36-976; A0A8I3P7W0 20-723); experiment: SPR with multiple cycle kinetics
T2 construct: SPR antigen; construct not described; also called dog α4β7 integrin; copies: 1 + 1

Rabbit- α4β7 = target: T3, Rabbit- α4β7 (Rabbit, UniProt G1TY34 34-977; G1SFE7 20-723); experiment: SPR with multiple cycle kinetics
T3 construct: SPR antigen; construct not described; also called rabbit α4β7 integrin; copies: 1 + 1

[1] = target: T4, rat α4β7 integrin on rat PBMCs (rat, UniProt D3ZMQ3 38-1036; G3V7M2 20-791); experiment: flow cytometry on cryopreserved rat PBMCs
T4 construct: whole, on cells; That the target on them is α4β7 is inferred from the purpose of the study; also called cells isolated from rats

[2] = target: T5, mouse α4β7 integrin on mouse PBMCs (mouse, UniProt Q00651 41-1039; P26011 20-806); experiment: flow cytometry on cryopreserved mouse PBMCs
T5 construct: whole, on cells; That the target on them is α4β7 is inferred from the purpose of the study; also called cells isolated from mice

[3] = target: T6, monkey α4β7 integrin on monkey PBMCs (monkey); experiment: receptor occupancy: competition with fluorescently labeled antibody, flow cytometry; all cell types, monkey PBMCs; mean, n = 7
T6 construct: whole, on cells; Receptor occupancy on CD4+, CD20+ and CD45RO+ cells from monkey donors
Experimental: (§1) The IC₅₀ values for competitive inhibition were determined by titrating unlabeled Ab001 into samples equilibrated with EC₅₀ concentrations of fluorescently labeled Ab001. Ab001 and Comparator Antibody Receptor Occupancy (IC₅₀) on CD4+, CD20+, and CD45RO+Cells from Human and Monkey Donors are shown in Table 2B.

[4] = target: T6, monkey α4β7 integrin on monkey PBMCs; experiment: receptor occupancy: competition with fluorescently labeled antibody, flow cytometry; CD20+ B cells, monkey PBMCs; range, n = 3 donors
Experimental: as §1

[5] = target: T6, monkey α4β7 integrin on monkey PBMCs; experiment: receptor occupancy: competition with fluorescently labeled antibody, flow cytometry; CD4+ Th cells, monkey PBMCs; range, n = 3 donors
Experimental: as §1

[6] = target: T6, monkey α4β7 integrin on monkey PBMCs; experiment: receptor occupancy: competition with fluorescently labeled antibody, flow cytometry; CD45RO+ memory T cells, monkey PBMCs; n = 1 donor
Experimental: as §1

[7] = target: α4β1 integrin on cells (α4β1-positive Ramos cells; HuT-78 cells) (UniProt P13612 34-1032; P05556 21-798, limits assumed); experiment: cell-based or functional assay

Row | Binder | Kd (Cyno- α4β7) [nM] | Kd (Dog- α4β7) [nM] | Kd (Rabbit- α4β7) [nM] | binding result [1] | binding result [2] | IC50 [3] [nM] | IC50 [4] | IC50 [5] | IC50 [6] [nM] | VCAM-1 Inhibition IC50 (adhesion of HuT-78 cells to coated recombinant VCAM-1) [7] [nM]
1 | B1 | 2.72 | 4.81 | 6.26 | no binding | no binding | 0.5 | 0.46 nM and 0.5 nM | 0.49 nM and 0.54 nM | 0.53 | 
2 | B2 | 1.2 | 1.77 | 5.34 | no binding | no binding | 0.56 | 0.42 nM and 0.66 nM | 0.48 nM and 0.6 nM | 0.58 | 
3 | B3 |  |  |  |  |  |  |  |  |  | 0.23
